# US20250262210A1 (TRUSTEES OF COLUMBIA UNIVERSITY IN THE CITY OF NEW YORK, published 2025)
# T1: NCAPD3 (human, UniProt P42695 1-1498)
# T1 sequence (looked up): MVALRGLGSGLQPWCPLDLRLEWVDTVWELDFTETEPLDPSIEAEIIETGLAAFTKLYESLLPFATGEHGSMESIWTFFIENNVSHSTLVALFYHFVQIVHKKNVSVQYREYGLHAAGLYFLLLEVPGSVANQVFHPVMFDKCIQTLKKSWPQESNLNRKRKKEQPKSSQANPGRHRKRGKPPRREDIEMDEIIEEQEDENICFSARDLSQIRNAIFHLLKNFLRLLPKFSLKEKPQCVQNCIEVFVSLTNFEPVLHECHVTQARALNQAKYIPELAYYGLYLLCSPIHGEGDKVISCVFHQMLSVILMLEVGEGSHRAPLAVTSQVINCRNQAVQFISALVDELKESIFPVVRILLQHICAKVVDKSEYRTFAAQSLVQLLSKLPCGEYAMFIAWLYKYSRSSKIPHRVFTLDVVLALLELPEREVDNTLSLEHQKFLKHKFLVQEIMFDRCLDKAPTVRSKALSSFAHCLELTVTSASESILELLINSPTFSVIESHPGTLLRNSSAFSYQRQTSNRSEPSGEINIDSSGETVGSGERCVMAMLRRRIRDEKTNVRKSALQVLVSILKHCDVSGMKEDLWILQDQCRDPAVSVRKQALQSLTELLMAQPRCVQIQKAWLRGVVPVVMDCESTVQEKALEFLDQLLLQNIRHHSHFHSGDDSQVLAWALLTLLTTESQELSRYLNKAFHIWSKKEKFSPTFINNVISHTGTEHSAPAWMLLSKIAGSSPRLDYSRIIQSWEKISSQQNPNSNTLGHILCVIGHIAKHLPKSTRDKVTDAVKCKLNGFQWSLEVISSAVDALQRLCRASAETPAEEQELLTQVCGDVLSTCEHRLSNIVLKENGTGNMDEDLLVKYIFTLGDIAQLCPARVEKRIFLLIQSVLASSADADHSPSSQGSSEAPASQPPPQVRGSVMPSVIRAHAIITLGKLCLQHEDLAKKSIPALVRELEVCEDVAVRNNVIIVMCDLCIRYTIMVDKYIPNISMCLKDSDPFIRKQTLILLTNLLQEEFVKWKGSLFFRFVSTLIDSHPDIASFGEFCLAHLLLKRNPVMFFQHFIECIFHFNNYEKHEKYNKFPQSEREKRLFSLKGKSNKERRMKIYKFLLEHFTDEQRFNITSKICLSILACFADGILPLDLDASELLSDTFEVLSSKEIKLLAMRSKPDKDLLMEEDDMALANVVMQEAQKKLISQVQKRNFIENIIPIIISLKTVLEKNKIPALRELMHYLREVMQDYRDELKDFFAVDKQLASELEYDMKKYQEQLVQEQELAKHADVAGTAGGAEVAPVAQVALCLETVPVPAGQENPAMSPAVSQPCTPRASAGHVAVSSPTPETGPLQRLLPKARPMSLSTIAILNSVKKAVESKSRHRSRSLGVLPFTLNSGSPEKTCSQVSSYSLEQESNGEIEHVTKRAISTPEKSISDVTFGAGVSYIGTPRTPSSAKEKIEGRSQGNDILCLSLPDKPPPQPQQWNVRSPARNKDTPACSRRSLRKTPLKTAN
# T2: LONP2 (human, UniProt Q86WA8 2-852, limits assumed)
# T2 sequence (looked up): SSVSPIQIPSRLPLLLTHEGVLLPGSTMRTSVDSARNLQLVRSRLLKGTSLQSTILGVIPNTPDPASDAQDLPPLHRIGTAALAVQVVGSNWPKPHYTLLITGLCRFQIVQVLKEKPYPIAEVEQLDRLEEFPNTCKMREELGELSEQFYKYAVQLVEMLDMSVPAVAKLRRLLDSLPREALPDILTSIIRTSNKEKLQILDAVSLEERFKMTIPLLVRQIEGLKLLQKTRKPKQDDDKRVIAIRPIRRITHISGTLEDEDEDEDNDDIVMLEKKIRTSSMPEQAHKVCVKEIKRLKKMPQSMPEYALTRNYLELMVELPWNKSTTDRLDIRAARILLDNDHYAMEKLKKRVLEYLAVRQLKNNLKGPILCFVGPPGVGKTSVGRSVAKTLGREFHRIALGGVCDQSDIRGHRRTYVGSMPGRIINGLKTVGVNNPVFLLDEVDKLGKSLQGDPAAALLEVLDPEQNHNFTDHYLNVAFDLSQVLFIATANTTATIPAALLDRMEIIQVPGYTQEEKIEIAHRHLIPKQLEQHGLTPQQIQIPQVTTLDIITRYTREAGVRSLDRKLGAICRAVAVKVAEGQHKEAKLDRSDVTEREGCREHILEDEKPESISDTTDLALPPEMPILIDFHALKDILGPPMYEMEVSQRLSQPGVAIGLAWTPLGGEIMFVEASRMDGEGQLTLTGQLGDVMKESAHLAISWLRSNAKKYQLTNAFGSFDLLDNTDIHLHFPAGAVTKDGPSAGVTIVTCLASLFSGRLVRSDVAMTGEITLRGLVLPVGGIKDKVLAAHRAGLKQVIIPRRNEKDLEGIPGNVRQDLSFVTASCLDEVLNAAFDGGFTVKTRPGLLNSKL
# B1: LZTR1 R810W-FLAG (other, human, UniProt Q8N653 1-840, looked up)
# chain: MAGPGSTGGQIGAAALAGGARSKVAPSVDFDHSCSDSVEYLTLNFGPFETVHRWRRLPPCDEFVGARRSKHTVVAYKDAIYVFGGDNGKTMLNDLLRFDVKDCSWCRAFTTGTPPAPRYHHSAVVYGSSMFVFGGYTGDIYSNSNLKNKNDLFEYKFATGQWTEWKIEGRLPVARSAHGATVYSDKLWIFAGYDGNARLNDMWTIGLQDRELTCWEEVAQSGEIPPSCCNFPVAVCRDKMFVFSGQSGAKITNNLFQFEFKDKTWTRIPTEHLLRGSPPPPQRRYGHTMVAFDRHLYVFGGAADNTLPNELHCYDVDFQTWEVVQPSSDSEVGGAEVPERACASEEVPTLTYEERVGFKKSRDVFGLDFGTTSAKQPTQPASELPSGRLFHAAAVISDAMYIFGGTVDNNIRSGEMYRFQFSCYPKCTLHEDYGRLWESRQFCDVEFVLGEKEECVQGHVAIVTARSRWLRRKITQARERLAQKLEQEAAPVPREAPGVAAGGARPPLLHVAIREAEARPFEVLMQFLYTDKIKYPRKGHVEDVLLIMDVYKLALSFQLCRLEQLCRQYIEASVDLQNVLVVCESAARLQLSQLKEHCLNFVVKESHFNQVIMMKEFERLSSPLIVEIVRRKQQPPPRTPLDQPVDIGTSLIQDMKAYLEGAGAEFCDITLLLDGHPRPAHKAILAARSSYFEAMFRSFMPEDGQVNISIGEMVPSRQAFESMLRYIYYGEVNMPPEDSLYLFAAPYYYGFYNNRLQAYCKQNLEMNVTVQNVLQILEAADKTQALDMKRHCLHIIVHQFTKVSKLPTLWSLSQQLLLDIIDSLASHISDKQCAELGADI
# notes: Stably expressed in U87 cells by lentivirus; also called LZTR1-FLAG-R810W; LZTR1 RW; not shown: FLAG tag
# Key:
# [1] = target: T1, NCAPD3; experiment: IP/MS, LZTR1 R810W-FLAG, U87
# Procedure, shortened: (§1)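 Read-out: spectral counts from LC-MS/MS (Orbitrap Fusion) after MaxQuant identification. Variable modifications were Met oxidation, protein N-terminal acetylation and N/Q deamidation.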
# [2] = target: T2, LONP2; experiment: IP/MS, LZTR1 R810W-FLAG, U87
# Procedure, shortened: as §1
binder,measurement,setting,value
B1,binding result,[1],binds
same,binding result,[2],binds
